Our source for the Supplementary Table 1: liposome permeabilization EC50 (peptide dose against AUC, 50 nM BAK; data of Supplementary Figure 4b; also printed in Supplementary Figure 3d) and Kd values is publication PMC8752837, “Structural basis of BAK activation in mitochondrial apoptosis initiation” (Nature Communications, 2022).

For assay [1], the target named is T1, MEAS-BAK-His6 (C-terminus truncated recombinant human BAK containing C-terminal 6x histidine tag) (human) (UniProt Q16611).
T1 sequence: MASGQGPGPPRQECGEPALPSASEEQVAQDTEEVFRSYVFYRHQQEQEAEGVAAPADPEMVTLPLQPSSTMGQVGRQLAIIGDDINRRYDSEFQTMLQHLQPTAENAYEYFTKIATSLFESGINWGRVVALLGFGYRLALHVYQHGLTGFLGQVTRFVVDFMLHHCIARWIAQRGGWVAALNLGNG

The target of assay [2] is T2, Human BAK-∆TM-His6 (human).
T2 sequence (Q16611 whole entry, looked up): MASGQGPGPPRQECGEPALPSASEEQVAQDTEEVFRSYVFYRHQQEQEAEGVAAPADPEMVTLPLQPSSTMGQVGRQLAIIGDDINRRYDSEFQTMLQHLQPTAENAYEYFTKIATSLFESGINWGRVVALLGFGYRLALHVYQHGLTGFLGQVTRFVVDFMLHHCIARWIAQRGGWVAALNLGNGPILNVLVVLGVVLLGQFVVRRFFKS
In words: SPR; MEAS-BAK-His6 captured (~500 RU) on Ni2+-charged NTA HisCap chip, peptides injected; 20 °C; 20 mM HEPES pH 8.0, 200 mM NaCl, 1 mM TCEP, 0.01% Tween20; 1:1 interaction model.

B1: WT BAK BH3 peptide (peptide)
peptide: SASEEQVAQDTEEVFRSYVFYRHQQEQEAEGVAAPADPEMVTLPLQPSSTMGQVGRQLAIIGDDINRRYDSEFQTMLQHLQPTAENAYEYFTKIATSLFESGINWGRVVALLGFGYRLALHVYQHGLTGFLGQVTRFVVDFMLHHCIARWIAQRGGWVAALNL
modifications: N-terminal acetylation; C-terminal amidation
On to B1, for which, in assay [1], the Supplementary Table 1: liposome permeabilization EC50 (peptide dose against AUC, 50 nM BAK; data of Supplementary Figure 4b; also printed in Supplementary Figure 3d) turned out to be 0.0358 µM.

B2: BAK BH3 peptide (peptide)
peptide: B1 peptide
modifications: N-terminal acetylation; C-terminal amidation
With B2, the Kd (as a rule, the free concentration of one partner at which half of the binding sites on the other are occupied at equilibrium, for simple one-to-one binding) in assay [2] amounted to 67 µM.
